The test system of data set [1] is E. coli gpsA (glycerol-3-phosphate dehydrogenase). Conditions: cited from earlier work; for affinity for the cofactors NADH and NADPH: Edgar and Bell, JBC 255:3492-7 (1980).
Data set [2] deals with Dunaliella viridis GPDH2. The conditions noted are these: read-out: NADH KM; He et al, 2009; cited from earlier work.
The test system of data set [3] is Drosophila melanogaster GPDH1 (flight muscle). The conditions noted are these: read-out: NADH KM; Niesel et al, 1982; cited from earlier work.
Data set [4] relates to Leishmania mexicana GPD. Conditions: read-out: NADH KM; Marche et al, 2000; cited from earlier work.
In data set [5] the test system is Saccharomyces cerevisiae GPD1. Conditions: read-out: NADH KM; Albertyn et al. 1992; cited from earlier work.
For data set [6], the system named is Jaculus orientalis GPD. The conditions noted are these: read-out: NADH KM; Berrada et al, 2002; cited from earlier work.
In data set [7] the test system is Dunaliella viridis GPDH1. The conditions noted are these: read-out: NADH KM; He et al, 2009; cited from earlier work.
The subject of data set [8] is Saccharomyces phosphatase GPP2. The conditions noted are these: Norbeck, JBC 271:13875-81 (1996); cited from earlier work.
The subject of data set [9] is Saccharomyces phosphatase GPP1. The conditions noted are these: Norbeck, JBC 271:13875-81 (1996); cited from earlier work.
The test system of data set [10] is NC(=O)C1=CN([C@@H]2O[C@H](COP(=O)(O)OP(=O)(O)OC[C@H]3O[C@@H](n4cnc5c(N)ncnc54)[C@H](OP(=O)(O)O)[C@@H]3O)[C@@H](O)[C@H]2O)C=CC1. As to the kind of experiment: cells, lysate or membranes named. Conditions: pH 6.8; 30.0 °C.
The test system of data set [11] is NC(=O)C1=CN([C@@H]2O[C@H](COP(=O)(O)OP(=O)(O)OC[C@H]3O[C@@H](n4cnc5c(N)ncnc54)[C@H](O)[C@@H]3O)[C@@H](O)[C@H]2O)C=CC1. Kind of data set: cells, lysate or membranes named. The conditions noted are these: pH 6.8; 30.0 °C.
Substrate in data set [12]: NC(=O)C1=CN([C@@H]2O[C@H](COP(=O)(O)OP(=O)(O)OC[C@H]3O[C@@H](n4cnc5c(N)ncnc54)[C@H](O)[C@@H]3O)[C@@H](O)[C@H]2O)C=CC1
Kind of data set: purified protein, by the assay type. The conditions noted are these: pH 6.8, 30.0 °C.

Substrate in data set [13]: NC(=O)C1=CN([C@@H]2O[C@H](COP(=O)(O)OP(=O)(O)OC[C@H]3O[C@@H](n4cnc5c(N)ncnc54)[C@H](OP(=O)(O)O)[C@@H]3O)[C@@H](O)[C@H]2O)C=CC1
As to the kind of experiment: purified protein, by the assay type. The conditions noted are these: pH 6.8; 30.0 °C.

Substrate in data set [14]: NC(=O)C1=CN([C@@H]2O[C@H](COP(=O)(O)OP(=O)(O)OC[C@H]3O[C@@H](n4cnc5c(N)ncnc54)[C@H](O)[C@@H]3O)[C@@H](O)[C@H]2O)C=CC1
Kind of data set: cells, lysate or membranes named. The class given is biochemical, Saccharomyces cerevisiae. Conditions: E. coli expressed, 30.0 °C. The protocol: Glycerol-3-phosphate production was measured by LC/MS.
The data used in this section are provided in Table 11, and includes measurements of the metabolic products and the in vitro measurements of GPD as described above.

Substrate in data set [15]: NC(=O)C1=CN([C@@H]2O[C@H](COP(=O)(O)OP(=O)(O)OC[C@H]3O[C@@H](n4cnc5c(N)ncnc54)[C@H](O)[C@@H]3O)[C@@H](O)[C@H]2O)C=CC1
As to the kind of experiment: cells, lysate or membranes named. Conditions: pH 6.8; 30.0 °C. This is another data set of the same source.

Substrate in data set [16]: NC(=O)C1=CN([C@@H]2O[C@H](COP(=O)(O)OP(=O)(O)OC[C@H]3O[C@@H](n4cnc5c(N)ncnc54)[C@H](OP(=O)(O)O)[C@@H]3O)[C@@H](O)[C@H]2O)C=CC1
Kind of data set: cells, lysate or membranes named. Conditions: pH 6.8; 30.0 °C. This is another data set of the same source.

Where [17] appears, read: other: GPD1 WT_y, crude cell extract, pH 6.8, 1 mM dihydroxyacetone phosphate.

The source of these data is patent US9944954B2, “Glycerol 3-phosphate dehydrogenase for butanol production” (BUTAMAX ADVANCED BIOFUELS LLC, priority 2013, dated 2018).

With `NC(=O)C1=CN([C@@H]2O[C@H](COP(=O)(O)OP(=O)(O)OC[C@H]3O[C@@H](n4cnc5c(N)ncnc54)[C@H](O)[C@@H]3O)[C@@H](O)[C@H]2O)C=CC1` [NADH, reduced nicotinamide adenine dinucleotide], the “affinity for the cofactors NADH and NADPH” value in data set [1] is “substantially the same affinity”. Besides, the Km was 59.2 µM in data set [2]; 78 µM in [3]; 24 µM in data set [4]; 23 µM in data set [5]; 32 µM in data set [6]; 58.9 µM in data set [7].

Regarding `NC(=O)C1=CN([C@@H]2O[C@H](COP(=O)(O)OP(=O)(O)OC[C@H]3O[C@@H](n4cnc5c(N)ncnc54)[C@H](OP(=O)(O)O)[C@@H]3O)[C@@H](O)[C@H]2O)C=CC1` [NADPH, reduced nicotinamide adenine dinucleotide phosphate], the “affinity for the cofactors NADH and NADPH” value in data set [1] is “substantially the same affinity”.

Turning to `O=P(O)(O)OC[C@H](O)CO` [glycerol-3-phosphate], the Michaelis constant in data set [8] is 3.9; in data set [9], 3.1. Besides, in [1], the “product inhibition by glycerol-3-phosphate” value is “product inhibited”.

In the case of “Rickettsia prowazekii str. BuV67-CWPP GPD (gene SEQ ID NO: 16; SEQ ID NO: 192) (Rickettsia prowazekii str. Madrid E)”, the Michaelis constant (Km) turned out to be 4 µM in [10] and 664 µM in [11].

B1: Kangiella koreensis GPD (SEQ ID NO: 18; SEQ ID NO: 194) (Kangiella koreensis DSM 16069) (protein)
chain: MSAQLSFAVLGAGSYGTALAVLLARNGHSVQLWARNSQHVVEMQQAKQNTKYLPDVAFPDNLSVTDQIDVALKHHPIILVAVPSHAFRDTLYLIKPLVNQDSKLVWASKGLDPDSGDLLGNVLKNILGDNMPHAILSGPTFAKEMAIGMPTAITLAANNDDFAEQLALALHNERFRVYTSDDIVGVQVGGAVKNVVAIGAGIADGLGYGANARTALITRGLAEMTRLGVAAGGKQETFNGMAGMGDLVLTCTDNQSRNRRFGLALGKGANRDEAEHAIGQVVEGVRNAKEVKMLAERLGVEMPISDAIYRIIYEGVDARQAAHELLTRDLKSEG
As to B1, the Km came to 2018 µM in data set [12] and 1 µM in [13].

B2: Beggiatoa alba GPD (SEQ ID NO: 17; SEQ ID NO: 193) (Beggiatoa alba B18LD) (protein)
chain: MLSPSALLVLGAGSWGTALALALARRQYPIYLWGKDPAHVHTLQIQRCNQRFLPNAVFPDNLYAITDFVTLMPIVEDIIIVVPSHGFRETLKKIKPYITKNHRLCWATKGLEYQTGLLLHEVARAELGDNIPLAVLSGPSFAGEVAAALPTAVTIAAQDIENAHHVAQLFHQASFRAYTSNDMVGVQIGGAVKNVIAIAAGIADGLKMGANTRAALITRGLSEIVRLGIALGGQRETFMGLAGLGDLVLTCTDNQSRNRRFGYALAQGISLEAAQAQVGQVVEGIHAATITHQLAQQHGVEMPIVNHVNQVLTGQSTPLEAAQALLAREPKPEML
For B2, the Michaelis constant (Km) came out at 101 µM in data set [12] and 6 µM in data set [13].

B3: Drosophila melanogaster glycerol 3 phosphate dehydrogenase, isoform C (gi: 22945708) (Drosophila melanogaster) (protein)
chain: MADKVNVCIVGSGNWGSAIAKIVGANAAALPEFEERVTMFVYEELIDGKKLTEIINETHENVKYLKGHKLPPNVVAVPDLVEAAKNADILIFVVPHQFIPNFCKQLLGKIKPNAIAISLIKGFDKAEGGGIDLISHIITRHLKIPCAVLMGANLANEVAEGNFCETTIGCTDKKYGKVLRDLFQANHFRVVVVDDADAVEVCGALKNIVACGAGFVDGLKLGDNTKAAVIRLGLMEMIRFVDVFYPGSKLSTFFESCGVADLITTCYGGRNRRVSEAFVTSGKTIEELEKEMLNGQKLQGPPTAEEVNYMLKNKGLEDKFPLFTAIHKICTNQLKPNDLIDCIRNHPEHMDTSIMPSPKL
Take B3: in data set [12] (other: one experiment, in parallel with Saccharomyces GPD1, E. coli expressed), the Michaelis constant (Km) stood at 5 µM.

B4: Saccharomyces cerevisiae GPD1 (glycerol-3-phosphate dehydrogenase), wild type, SEQ ID NO: 195 (Saccharomyces cerevisiae S288C) (protein)
chain: MSAAADRLNLTSGHLNAGRKRSSSSVSLKAAEKPFKVTVIGSGNWGTTIAKVVAENCKGYPEVFAPIVQMWVFEEEINGEKLTEIINTRHQNVKYLPGITLPDNLVANPDLIDSVKDVDIIVFNIPHQFLPRICSQLKGHVDSHVRAISCLKGFEVGAKGVQLLSSYITEELGIQCGALSGANIATEVAQEHWSETTVAYHIPKDFRGEGKDVDHKVLKALFHRPYFHVSVIEDVAGISICGALKNVVALGCGFVEGLGWGNNASAAIQRVGLGEIIRFGQMFFPESREETYYQESAGVADLITTCAGGRNVKVARLMATSGKDAWECEKELLNGQSAQGLITCKEVHEWLETCGSVEDFPLFEAVYQIVYNNYPMKNLPDMIEELDLHED
notes: also native or codon-optimized GPD1 in yeast PNY2145-derived strains (T12); full length 391 aa
B4: in data set [14] (setting [17]), the Km was determined as 13 µM and the maximal velocity (Vmax) turned out to be 9000 µM/min. The Km in data set [14] (other: one experiment, in parallel with Drosophila isoform C, pH 6.8) was 5 µM.

B5: Archaeoglobus fulgidus DSM 4304 GPD (gene SEQ ID NO: 14) (Archaeoglobus fulgidus DSM 4304) (protein)
chain: MIVSILGAGAMGSALSVPLVDNGNEVRIWGTEFDTEILKSISAGREHPRLGVKLNGVEIFWPEQLEKCLENAEVVLLGVSTDGVLPVMSRILPYLKDQYIVLISKGLIDFDNSVLTVPEAVWRLKHDLRERTVAITGPAIAREVAKRMPTTVVFSSPSESSANKMKEIFETEYFGVEVTTDIIGTEITSALKNVYSIAIAWIRGYESRKNVEMSNAKGVIATRAINEMAELIEILGGDRETAFGLSGFGDLIATFRGGRNGMLGELLGKGLSIDEAMEELERRGVGVVEGYKTAEKAYRLSSKINADTKLLDSIYRVLYEGLKVEEVLFELATFK
Consider B5, for which the values for the Michaelis-Menten constant (Km) in data set [15] and in data set [16] were 5 µM and 7 µM, respectively.

One may read the Km as the concentration of substrate that gives half-maximal velocity. The Vmax is the rate approached at saturating substrate.
